# Data taken from patent WO2009138494A2 (dated 2009).
# Residue numbers refer to the chain shown, from its start.
# T1: recombinant murine TLR2/Fc chimera, R&D Systems cat no: 1530-TR (murine, UniProt Q9QUN7 25-587)
# T1 construct: Bought Fc chimera, coated on ELISA plates; also called mTLR2/Fc; mTLR2; not shown: Fc part of the chimera
# T1 sequence (looked up): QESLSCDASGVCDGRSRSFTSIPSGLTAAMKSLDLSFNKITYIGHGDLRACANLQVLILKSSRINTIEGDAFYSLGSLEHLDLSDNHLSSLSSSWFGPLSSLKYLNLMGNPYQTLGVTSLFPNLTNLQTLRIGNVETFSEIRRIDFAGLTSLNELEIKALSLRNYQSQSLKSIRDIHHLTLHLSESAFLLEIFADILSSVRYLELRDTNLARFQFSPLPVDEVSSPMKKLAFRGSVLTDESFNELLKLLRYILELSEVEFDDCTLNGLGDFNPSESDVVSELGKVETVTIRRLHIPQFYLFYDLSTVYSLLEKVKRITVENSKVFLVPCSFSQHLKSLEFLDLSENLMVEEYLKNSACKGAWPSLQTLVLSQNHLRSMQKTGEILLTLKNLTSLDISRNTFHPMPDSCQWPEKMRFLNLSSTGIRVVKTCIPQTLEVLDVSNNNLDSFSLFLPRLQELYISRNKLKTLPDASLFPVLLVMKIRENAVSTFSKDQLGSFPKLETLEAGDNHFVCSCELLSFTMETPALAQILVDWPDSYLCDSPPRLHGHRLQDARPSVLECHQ
# B1: 172-C6 (VHH)
# VHH: EVQLVESGGGVVQAGGSLSLSCAASGRTLSVYAMGWFRQAPGKEREFVATISVSGVYTYYTDSVKARFTISRDNAKNTVYLQMNSLKPEDTAVYYCAAGSKPTFLGSSYDYWGQGTQVTVSS
# notes: not shown: C-terminal c-myc tag and (His)6 tag coded by the vector
# B2: 172-C1 (VHH)
# VHH: EVQLVESGGGLVQAGGSLRLSCAASELAFDFDGYNFAWVRQAPGREREFVSVINRSGGSTDYASSVKGRFTISRDNAKNTVYLQMTSLEPEDTAVYYCAAGPYYTGSSDRYDYWGQGTPVTVSS
# notes: as for B1
# B3: 172-C9 (VHH)
# VHH: EVQLVESGGGLVQAGGSLRLSCAASGRTYSIDSMAWFRQAPGKERQFLGSILWSDDSTNYADSVKGRFTISRDNAKNTMYLQMGSLKPEDTAVYYCRSWDGRQVYWGQGTQVTVSS
# notes: as for B1
# B4: 161-A11 (VHH)
# VHH: EVQLVESGGGLVQAEGSLRLSCVASGRTFDTYVMGWFRQAPGKEREFVAAINRSGVTDYPDSATGRFTISRENAKNTVYLQGTSLKPEDTGVYYCAARKAFYYGTSSYPNDYAHWGQGTQVTVSS
# notes: as for B1
# B5: 107-H8 (VHH)
# VHH: EVQLVESGGGLVQAGGSLRLSCVASRGTLNNNPMAMGWFRRAPGKEREFVASIDWSGRSTYYADSVKGRFTISRDNAKNTVWLQINSLEPEDTSVYFCASRREYYTGISIVESDYPYWGQGTQVTVSS
# notes: as for B1
# B6: 172-E5 (VHH)
# VHH: EVQLVESGGGLVQTGGSLRLSCAASGSTFSNAVMGWFRQAPGKEREFVARITWNGGSTYYGDSAKGRFTISRDNAKTTAYLLMNSLQPEDTANYFCAARMRPVFYSTSGQESFYDYWGQGTQVTVSS
# notes: as for B1
# B7: 172-F11 (VHH)
# VHH: B6 VHH with N31R, T58A, F104S, Y105D, T107S
# notes: as for B1
# B8: 161-A3 (VHH)
# VHH: B6 VHH with N31K, N74I, A75G, Y105S, T107S, G109V
# notes: as for B1
# B9: 107-A7 (VHH)
# VHH: EVQLVESGGGLVQAGGSLRLSCVASGRTLSTVNMGWFRQAPGKERDIVARISGSSVSTYYAESVRGRFTISRDNAKNTVYLQMNSLRPEDTGVYYCVADSPGGRSYEYWGQGTQVTVSS
# notes: as for B1
# B10: 107-A9 (VHH)
# VHH: B9 VHH with V32Y, V79M, S85N, G92A, S100G
# notes: as for B1
# B11: 107-C12 (VHH)
# VHH: B9 VHH with V56I, G92A
# notes: as for B1
# B12: 107-G9 (VHH)
# VHH: B9 VHH with G53P, A61S, R65K, G92A
# notes: as for B1
# B13: 107-E9 (VHH)
# VHH: B9 VHH with T31S, G53P, R65K
# notes: as for B1
# B14: 133-H11 (VHH)
# VHH: B9 VHH with T28S, V56I, G92A, Y108F
# notes: as for B1
# B15: 172-H4 (VHH)
# VHH: EVQLVESGGGLVQAGGSLRLSCAASGRTFDSYAMGWFRQAPGKEREFVAAIGYSGTYDADSVKGRFTISRDNAKKTTVYLQMNNLKPEDTAVYYCAAAGTFSTTVGTTTSHYDYWGQGTQVTVSS
# notes: as for B1
# B16: 172-F7 (VHH)
# VHH: EVQLVESGGGLVQAGGSLRLSCAASGRTFSRYVMGWFRQAPGKEREFVAVINWSGGSTDYSTYVKGRFTIFRDNAKNTVFLEMTSLEPEDTAVYYCAAGEYYTGDSSRYDHWGQGTPVTVSS
# notes: as for B1
# B17: 161-E1 (VHH)
# VHH: B16 VHH with V12A, A49S, W53R
# notes: as for B1
# B18: 172-B7 (VHH)
# VHH: B16 VHH with R31S, A49S, W53R, S61A, T62S, Y63S, F71S, F80Y, D105I, H111Y
# notes: as for B1
# B19: 172-G3 (VHH)
# VHH: B16 VHH with E6K, V33I, W53R, S61A, T62S, Y63S, F71S, F80Y, D105S
# notes: as for B1
# B20: 172-A12 (VHH)
# VHH: B16 VHH with G35S, Y63S, F80Y, M83T, P88L, D105A
# notes: as for B1
# B21: 133-H9 (VHH)
# VHH: EVQLVESGGGLVQPGGSLRLSCAASGSIFSINDMGWFRQAPGKEREHVALIRIKDGSIYYADSVKGRFTISRDNAKNTVYLQMNSLKPEDTAVYYCAAKTGTSFVYWGQGTQVTVSS
# notes: as for B1
# B22: 133-F8 (VHH)
# VHH: B21 VHH with I53F, N77S
# notes: as for B1
# B23: 133-F12 (VHH)
# VHH: B21 VHH with I53F, Y106C
# notes: as for B1
# B24: 107-H7 (VHH)
# VHH: B21 VHH with K87R, A97G
# notes: as for B1
# B25: 133-E12 (VHH)
# VHH: B21 VHH with N32S, K76E, K87R, A97G
# notes: as for B1
# B26: 161-C9 (VHH)
# VHH: EVQLVESGGGLVQAEGSLRLSCVASGTHVMGWFRQASGKEREFVAAINRSGSTDYPDSADSAKGRFTISRDNAKNTVYLQMTSLKPEDTGVYYCAARKAFYFGTSSYPSDYAYWGQGTQVTVSS
# notes: as for B1
# B27: 172-A1 (VHH)
# VHH: EVQLVESGGGLVQAGGSLRLSCTASGRTFSSFVMGWFRQAPGKEREFVAYITLRGGDSPLYADSVKDRFTISRDIAKNLVYLQMNSLKPEDTAVYYCAARYSGGSVYRNDYAYWGQGTQVTVSS
# notes: as for B1
# B28: 161-H1 (VHH)
# VHH: EVQLVESGGGLVQAGGSLRLSCAPSRRTFSTYVMGWFRQAPGMEREFVSAISWSSGSTRYADSVKGRFTISRDSVKNTMYLQMNSLKPEDTAVYYCAAGASFGSIFWESAREYNYWGQGTQVTVSS
# notes: as for B1
# B29: 161-H4 (VHH)
# VHH: EVQLVESGGGLVQAGGSLRLSCAASGRPDSSYFMGWFRQAPGKEFEFVSRINWIGSNTAYADSVKGRFTISRDNAKNTVYLQMNSLKPEDTAVYFCVATTINSFNSGNYKDPRLWTYWAQGTQVTVSS
# notes: as for B1
# B30: 161-F2 (VHH)
# VHH: EVQLVESGGGLVQAEGSLRLSCVASGPTFDTYVMGWFRQAPGKEREFVAAINRSGSTDYPDYWDSAKGRFTISRDNAKNTVYLQMTSLRPEDTGVYYCAARKTFYFGTSSYPNDYAYWGQGTQVTVSS
# notes: as for B1
# B31: 133-A1 (VHH)
# VHH: EVQLVESGGGLVQAGESLRLSCVASGISISTEVMGWYRQAPGKQGESVAIIKTDGSTYYPDSVKGRFAISRDNAKNTVYLAMNSLKLEDTGVYYCIIAGRGRGQGTQVTVSS
# notes: as for B1
# B32: 133-H5 (VHH)
# VHH: B31 VHH with A24V, E32K, A81Q, L87V, A98T, R100W
# notes: as for B1
# B33: 133-H4 (VHH)
# VHH: B31 VHH with E6K, A81Q, I96V, A98P, R102P
# notes: as for B1
# B34: 172-B3 (VHH)
# VHH: VQLVKSGGGGLVQAGGSLRLSCAASGRTFSRYVMGWFRQAPGKEREFVAVINRSGGSTDYAASVKGRFTIARDNAKNTVYLEMTSLEPEDTAVYYCAAGEYYTGSSSRYDHWGQGTPVTVSS
# notes: as for B1
# B35: 161-F4 (VHH)
# VHH: EVQLVESGGGLVQPGGSLRLSCAASGSIGSGDAMGWYRQPPGKQRERVATITSGGLTVYTESVKGRFAISRDNAKNTVYLQMNSLKPEDTAVYYCNTVNYRVGWGPGTQVTVSS
# notes: as for B1
# B36: 161-E2 (VHH)
# VHH: EVQLVESGGGLVQAGGSLRLSCAASGRAFSSYVMGWFRQTPGKEREFVSVINWSGGSTDYSSSVKGRFTISRDNAKNTVYLQMTSLEPEDTAVYYCAAGQYYTGRSDRYDYWGQGTPVTVSS
# notes: as for B1
# Legend:
# [1] = molecular target: T1, recombinant murine TLR2/Fc chimera, R&D …; assay: ELISA: TLR coated at 2 ug/ml, periplasmic extract of the clone, anti-VHH detection, OD against no-Nanobody control
# [2] = molecular target: T2, recombinant human TLR4/MD2 (rhTLR4/MD2), R&D Systems cat no: 3146-TM/CF (human, UniProt O00206 24-631; Q9Y6Y9 17-160, limits assumed); assay: as above
# T2 construct: Bought protein, coated on ELISA plates
# T2 sequence (O00206 24-631 limits assumed, chain 1 of 2): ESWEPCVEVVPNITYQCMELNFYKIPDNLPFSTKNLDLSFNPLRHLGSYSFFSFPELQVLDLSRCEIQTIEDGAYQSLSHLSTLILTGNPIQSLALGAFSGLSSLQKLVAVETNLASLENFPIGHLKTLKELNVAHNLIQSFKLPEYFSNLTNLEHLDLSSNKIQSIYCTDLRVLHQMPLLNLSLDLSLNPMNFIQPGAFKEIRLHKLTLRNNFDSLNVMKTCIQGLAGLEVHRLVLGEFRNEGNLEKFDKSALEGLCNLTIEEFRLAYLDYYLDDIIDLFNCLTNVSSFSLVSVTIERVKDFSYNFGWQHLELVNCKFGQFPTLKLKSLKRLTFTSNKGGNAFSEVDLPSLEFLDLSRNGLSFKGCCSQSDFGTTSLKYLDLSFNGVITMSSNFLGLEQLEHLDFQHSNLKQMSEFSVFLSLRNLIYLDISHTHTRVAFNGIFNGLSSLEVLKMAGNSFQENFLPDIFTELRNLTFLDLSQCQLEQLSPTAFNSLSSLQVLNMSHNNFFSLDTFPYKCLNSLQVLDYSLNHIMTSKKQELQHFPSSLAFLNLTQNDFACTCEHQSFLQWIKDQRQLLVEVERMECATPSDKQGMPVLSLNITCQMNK
# T2 sequence (Q9Y6Y9 17-160 limits assumed, chain 2 of 2): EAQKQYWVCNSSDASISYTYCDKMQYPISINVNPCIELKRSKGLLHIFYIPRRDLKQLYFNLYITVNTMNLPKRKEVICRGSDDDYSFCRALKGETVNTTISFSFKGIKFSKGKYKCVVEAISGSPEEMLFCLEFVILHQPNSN
Binder,binding result [1],binding result [2]
B1,binds,–
B2,binds,–
B3,binds,–
B4,binds,–
B5,–,binds
B6,binds,–
B7,binds,–
B8,binds,–
B9,–,binds
B10,–,binds
B11,–,binds
B12,–,binds
B13,–,binds
B14,–,binds
B15,binds,–
B16,binds,–
B17,binds,–
B18,binds,–

Binder,binding result [1],binding result [2]
B19,binds,–
B20,binds,–
B21,–,binds
B22,–,binds
B23,–,binds
B24,–,binds
B25,–,binds
B26,binds,–
B27,binds,–
B28,binds,–
B29,binds,–
B30,binds,–
B31,–,binds
B32,–,binds
B33,–,binds
B34,binds,–
B35,binds,–
B36,binds,–
